Experimental data as given in patent US20090226422, “Chemical Inhibitors of Inhibitors of Differentiation” (published 2009).

Tests used:
E47 + Id1 = biological target: T1, E47 + Id1 (Homo sapiens, UniProt P15923-2;P41134 P15923-2:1-651,P41134:1-155); assay: EMSA; Id1 (100 ng) added to E47 prevents E47 binding to MCK; binding restored by small-molecule Id inhibitors (100 uM, 5% DMSO); conditions: tags: recombinant human E47 mixed with recombinant human Id1 (100 ng); label: 32P
T1 sequence 1: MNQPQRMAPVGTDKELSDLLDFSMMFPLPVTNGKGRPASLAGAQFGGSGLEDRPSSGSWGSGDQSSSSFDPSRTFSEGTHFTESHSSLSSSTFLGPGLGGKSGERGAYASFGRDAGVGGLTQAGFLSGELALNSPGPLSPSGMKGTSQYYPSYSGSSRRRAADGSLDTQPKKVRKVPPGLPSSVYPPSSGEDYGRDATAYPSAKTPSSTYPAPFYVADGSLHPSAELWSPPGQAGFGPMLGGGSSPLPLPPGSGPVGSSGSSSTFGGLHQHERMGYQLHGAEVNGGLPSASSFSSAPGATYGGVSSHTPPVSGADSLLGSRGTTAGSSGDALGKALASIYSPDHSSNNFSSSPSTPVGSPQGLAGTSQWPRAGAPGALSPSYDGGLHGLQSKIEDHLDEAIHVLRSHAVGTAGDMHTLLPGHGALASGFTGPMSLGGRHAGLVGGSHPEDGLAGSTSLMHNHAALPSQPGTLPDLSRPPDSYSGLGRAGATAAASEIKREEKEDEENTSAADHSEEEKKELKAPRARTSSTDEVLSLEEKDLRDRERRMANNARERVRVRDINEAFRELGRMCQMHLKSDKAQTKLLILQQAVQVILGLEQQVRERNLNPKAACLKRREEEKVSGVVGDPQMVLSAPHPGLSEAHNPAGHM
T1 sequence 2: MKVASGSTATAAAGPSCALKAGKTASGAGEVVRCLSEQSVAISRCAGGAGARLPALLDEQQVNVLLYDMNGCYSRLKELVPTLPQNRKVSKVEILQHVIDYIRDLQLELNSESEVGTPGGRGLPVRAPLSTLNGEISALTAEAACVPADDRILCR
Protocol: (§1) Gel shift assays were performed using the 376 small molecules identified in the in silico drug screen and peptide synthesis. The identified compounds were then dissolved in 5% DMSO to a concentration of […] and reacted in binding mixtures that contained E47, Id1 and Mck. As controls, recombinant human E47 was used in a standard binding reaction that contained ³²P labeled MCK double stranded oligonucleotides containing consensus E-Box response element (MCK-5′ TTGATCCCCCCAACACCTGCTGCCTGAAGCT (SEQ ID NO. 1)) and 100 ng of Id1 was added to a standard binding reaction using E47 and p32 labeled MCK. After 30 minutes of incubation, the reaction mixtures were resolved on a 5% non-denaturing polyacrylamide gel and autoradiographed.

E47 (TCF3) = biological target: T2, E47 (TCF3) (Homo sapiens, UniProt P15923-2 P15923-2:1-651); assay: EMSA; 5% non-denaturing PAGE, 30 min incubation; E47 homodimer shifts the probe; conditions: tags: recombinant human E47; chain copies: 2 (homodimer, stated); label: 32P
T2 sequence: T1 sequence 1
Protocol: as §1

B1: MCK E-box oligonucleotide (dsDNA)
DNA 1: TTGATCCCCCCAACACCTGCTGCCTGAAGCT
DNA 2: AGCTTCAGGCAGCAGGTGTTGGGGGGATCAA
Question: Does B1 bind (E47 + Id1)?
Answer: Result: no binding

Question: Does B1 bind (E47 (TCF3))?
Answer: Result: binds
